Legend:
[1] = biological target: T1, soluble tissue factor, P13726
T1 chain: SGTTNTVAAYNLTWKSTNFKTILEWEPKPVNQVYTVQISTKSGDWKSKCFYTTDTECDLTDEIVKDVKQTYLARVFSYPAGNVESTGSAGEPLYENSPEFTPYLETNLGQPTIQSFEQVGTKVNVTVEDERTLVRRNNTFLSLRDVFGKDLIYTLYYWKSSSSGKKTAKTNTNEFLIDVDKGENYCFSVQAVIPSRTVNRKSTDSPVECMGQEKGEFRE

FXI protease
Concentration by Activity (ng/ml), aPTT based factor assay (FIX/cFXI1/XTEN (pCW0735)): 7 ng/mL | Fraction Active (activity / ELISA) (FIX/cFXI1/XTEN (pCW0735)): 30% | clotting activity against FIX-XTEN without cleavage site (aPTT based factor assay) (FIX/cFXI1/XTEN (pCW0735)): enhanced the clotting activity by greater than 30-fold | Concentration by Activity (ng/ml), aPTT based factor assay (FIX/cFXI2/XTEN (pCW0736)): 9 ng/mL | Fraction Active (activity / ELISA) (FIX/cFXI2/XTEN (pCW0736)): 34% | clotting activity against FIX-XTEN without cleavage site (aPTT based factor assay) (FIX/cFXI2/XTEN (pCW0736)): enhanced the clotting activity by greater than 30-fold | Concentration by Activity (ng/ml), aPTT based factor assay (FIX/cFXI3/XTEN (pCW0737)): 11 ng/mL | Fraction Active (activity / ELISA) (FIX/cFXI3/XTEN (pCW0737)): 40% | clotting activity against FIX-XTEN without cleavage site (aPTT based factor assay) (FIX/cFXI3/XTEN (pCW0737)): enhanced the clotting activity by greater than 30-fold

B1: FVIIa-AE288 (protein)
chain 1: ANAFLEELRPGSLERECKEEQCSFEEAREIFKDAERTKLFWISYSDGDQCASSPCQNGGSCKDQLQSYICFCLPAFEGRNCETHKDDQLICVNENGGCEQYCSDHTGTKRSCRCHEGYSLLADGVSCTPTVEYPCGKIPILEKRNASKPQGR
chain 2: IVGGKVCPKGECPWQVLLLVNGAQLCGGTLINTIWVVSAAHCFDKIKNWRNLIAVLGEHDLSEHDGDEQSRRVAQVIIPSTYVPGTTNHDIALLRLHQPVVLTDHVVPLCLPERTFSERTLAFVRFSLVSGWGQLLDRGATALELMVLNVPRLMTQDCLQQSRKVGDSPNITEYMFCAGYSDGSKDSCKGDSGGPHATHYRGTWYLTGIVSWGQGCATVGHFGVYTRVSQYIEWLQKLMRSEPRPGVLLRAPFPGSPGTSESATPESGPGSEPATSGSETPGTSESATPESGPGSEPATSGSETPGTSESATPESGPGTSTEPSEGSAPGSPAGSPTSTEEGTSESATPESGPGSEPATSGSETPGTSESATPESGPGSPAGSPTSTEEGSPAGSPTSTEEGTSTEPSEGSAPGTSESATPESGPGTSESATPESGPGTSESATPESGPGSEPATSGSETPGSEPATSGSETPGSPAGSPTSTEEGTSTEPSEGSAPGTSTEPSEGSAPGSEPATSGSETPGTSESATPESGPGTSTEPSEGSAPGSSS
soluble tissue factor (sTF) induced clotting (Stago STA-Clot FVIIa activity assay) [1]: an activity equivalent to 112 U/ml of FVIIa activity

Source: patent US20120263701
